The results in this text go back to the supplement of paper PMC9112550, “Optimization of the antimicrobial peptide Bac7 by deep mutational scanning” (BMC Biology, 2022).

The data set deals with Escherichia coli TOP10. Briefly: shrunken log2 fold change of peptide-encoding DNA abundance (4.5 h post-induction vs induction); higher = less antimicrobial activity (less host growth inhibition). The following applies: time post-induction: 4.5 h; library: site-saturation at positions 5, 18, 19, 20.
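Also: peptides expressed intracellularly from a pBAD plasmid library in pooled LB shake-flask culture, induced with 0.3% L-arabinose, DNA abundance read by NGS, three biological replicates, DESeq2 with apeglm shrinkage.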

As to RRIRRRPPRLPRPRPRPRMNPRP, the “shrunken log2 fold change” value came out at 0.545.

For RRIRNRPPRLPRPRPRPTPAPRP, the “shrunken log2 fold change” value came to 0.713.

On to RRIRTRPPRLPRPRPRPVRSPRP, for which the “shrunken log2 fold change” value amounted to 0.641.

In the case of RRIRNRPPRLPRPRPRPFTRPRP, the “shrunken log2 fold change” value was found to be 0.00645.

On to RRIRVRPPRLPRPRPRPIEKPRP, for which the “shrunken log2 fold change” value stood at 0.0502.

For the sequence RRIRYRPPRLPRPRPRPQPVPRP, the “shrunken log2 fold change” value was -0.258.

On to RRIRLRPPRLPRPRPRPYENPRP, for which the “shrunken log2 fold change” value is -0.0259.

Consider RRIRARPPRLPRPRPRPSSAPRP, for which the “shrunken log2 fold change” value came out at 1.29.

As for RRIRGRPPRLPRPRPRPNKAPRP, the “shrunken log2 fold change” value stood at 0.454.

With RRIRARPPRLPRPRPRPCWNPRP, the “shrunken log2 fold change” value is -0.0387.

Consider RRIRQRPPRLPRPRPRPLWWPRP, for which the “shrunken log2 fold change” value turned out to be 0.121.

With RRIRNRPPRLPRPRPRPHPPPRP, the “shrunken log2 fold change” value is 0.304.

RRIRCRPPRLPRPRPRPEMWPRP: the “shrunken log2 fold change” value was 0.166.

Consider RRIRARPPRLPRPRPRPLDDPRP, for which the “shrunken log2 fold change” value is 0.875.

Turning to RRIRERPPRLPRPRPRPLRLPRP, the “shrunken log2 fold change” value was found to be 0.304.

Regarding RRIRHRPPRLPRPRPRPDTHPRP, the “shrunken log2 fold change” value was -1.19.

On to RRIRDRPPRLPRPRPRPEQTPRP, for which the “shrunken log2 fold change” value was 0.0162.

Take RRIRQRPPRLPRPRPRPMCLPRP: the “shrunken log2 fold change” value is -0.184.

In the case of RRIRKRPPRLPRPRPRPIPDPRP, the “shrunken log2 fold change” value is 0.2.

On to RRIRCRPPRLPRPRPRPHIGPRP, for which the “shrunken log2 fold change” value came to 0.000633.

On to RRIRARPPRLPRPRPRPQKRPRP, for which the “shrunken log2 fold change” value turned out to be 0.172.

For the sequence RRIRKRPPRLPRPRPRPCWAPRP, the “shrunken log2 fold change” value was 0.114.

On to RRIRVRPPRLPRPRPRPTRAPRP, for which the “shrunken log2 fold change” value was 0.665.

Turning to RRIRRRPPRLPRPRPRPIESPRP, the “shrunken log2 fold change” value stood at 0.0332.

For the sequence RRIRVRPPRLPRPRPRPFTWPRP, the “shrunken log2 fold change” value is -0.327.

In the case of RRIRLRPPRLPRPRPRPKWMPRP, the “shrunken log2 fold change” value was -0.00339.

Consider RRIRYRPPRLPRPRPRPDYCPRP, for which the “shrunken log2 fold change” value was -0.00674.

As to RRIRGRPPRLPRPRPRPLGGPRP, the “shrunken log2 fold change” value stood at 0.615.

RRIRWRPPRLPRPRPRPYCDPRP: the “shrunken log2 fold change” value was -0.218.

As for RRIRKRPPRLPRPRPRPRHHPRP, the “shrunken log2 fold change” value was determined as 0.476.

Take RRIRNRPPRLPRPRPRPDAWPRP: the “shrunken log2 fold change” value stood at 0.0835.

As for RRIRARPPRLPRPRPRPSGNPRP, the “shrunken log2 fold change” value turned out to be 0.0499.

On to RRIRERPPRLPRPRPRPDGIPRP, for which the “shrunken log2 fold change” value is -0.00168.

On to RRIRFRPPRLPRPRPRPYYPPRP, for which the “shrunken log2 fold change” value was -1.19.

Regarding RRIRWRPPRLPRPRPRPNVEPRP, the “shrunken log2 fold change” value is -0.319.

With RRIRKRPPRLPRPRPRPCETPRP, the “shrunken log2 fold change” value is -0.0599.

Take RRIRTRPPRLPRPRPRPGKNPRP: the “shrunken log2 fold change” value is -0.24.

On to RRIRIRPPRLPRPRPRPLGMPRP, for which the “shrunken log2 fold change” value was -0.268.

Turning to RRIRKRPPRLPRPRPRPDWSPRP, the “shrunken log2 fold change” value worked out at 0.0357.

Consider RRIRVRPPRLPRPRPRPHDYPRP, for which the “shrunken log2 fold change” value was -0.264.

With RRIRWRPPRLPRPRPRPRQLPRP, the “shrunken log2 fold change” value is -0.0051.

With RRIRVRPPRLPRPRPRPKHKPRP, the “shrunken log2 fold change” value is -0.114.

Turning to RRIRTRPPRLPRPRPRPFDHPRP, the “shrunken log2 fold change” value is -0.301.

Turning to RRIRPRPPRLPRPRPRPSKMPRP, the “shrunken log2 fold change” value was -0.169.

Take RRIRIRPPRLPRPRPRPYMDPRP: the “shrunken log2 fold change” value is -0.315.

In the case of RRIRGRPPRLPRPRPRPPWHPRP, the “shrunken log2 fold change” value worked out at 0.396.

Take RRIRRRPPRLPRPRPRPDDWPRP: the “shrunken log2 fold change” value came out at 0.359.

As for RRIRARPPRLPRPRPRPCTAPRP, the “shrunken log2 fold change” value was -0.147.

Turning to RRIRCRPPRLPRPRPRPKMNPRP, the “shrunken log2 fold change” value is -0.415.

As for RRIRERPPRLPRPRPRPNYEPRP, the “shrunken log2 fold change” value is -0.182.

Regarding RRIRGRPPRLPRPRPRPESTPRP, the “shrunken log2 fold change” value came out at 1.63.

Take RRIRIRPPRLPRPRPRPVIDPRP: the “shrunken log2 fold change” value is -0.0443.

Consider RRIRYRPPRLPRPRPRPDNFPRP, for which the “shrunken log2 fold change” value was -1.09.

For RRIRNRPPRLPRPRPRPTLRPRP, the “shrunken log2 fold change” value was 0.334.

For RRIRRRPPRLPRPRPRPRQHPRP, the “shrunken log2 fold change” value was 0.288.

RRIRNRPPRLPRPRPRPKETPRP: the “shrunken log2 fold change” value is -0.0238.

Turning to RRIRVRPPRLPRPRPRPWPIPRP, the “shrunken log2 fold change” value is -0.0661.

As for RRIRCRPPRLPRPRPRPKIGPRP, the “shrunken log2 fold change” value stood at 0.0398.

For RRIRARPPRLPRPRPRPWFMPRP, the “shrunken log2 fold change” value was -0.108.

In the case of RRIRIRPPRLPRPRPRPHLYPRP, the “shrunken log2 fold change” value is -0.241.

RRIRSRPPRLPRPRPRPFDWPRP: the “shrunken log2 fold change” value is -0.0461.

With RRIRERPPRLPRPRPRPRNYPRP, the “shrunken log2 fold change” value is -0.491.

On to RRIRERPPRLPRPRPRPDFFPRP, for which the “shrunken log2 fold change” value is -0.279.

On to RRIRLRPPRLPRPRPRPYAKPRP, for which the “shrunken log2 fold change” value amounted to 0.0695.

Take RRIRSRPPRLPRPRPRPRNSPRP: the “shrunken log2 fold change” value is -0.264.

Regarding RRIRYRPPRLPRPRPRPASYPRP, the “shrunken log2 fold change” value was -0.156.

In the case of RRIRWRPPRLPRPRPRPQLEPRP, the “shrunken log2 fold change” value came out at 0.0296.

Regarding RRIRCRPPRLPRPRPRPNWDPRP, the “shrunken log2 fold change” value was -0.185.

Regarding RRIRPRPPRLPRPRPRPPLTPRP, the “shrunken log2 fold change” value amounted to 0.274.

As for RRIRLRPPRLPRPRPRPVLIPRP, the “shrunken log2 fold change” value is -0.303.

Turning to RRIRIRPPRLPRPRPRPKRRPRP, the “shrunken log2 fold change” value worked out at 0.123.

With RRIRKRPPRLPRPRPRPQEAPRP, the “shrunken log2 fold change” value was -0.000925.

On to RRIRPRPPRLPRPRPRPMRMPRP, for which the “shrunken log2 fold change” value was determined as 0.268.

For RRIRSRPPRLPRPRPRPYQVPRP, the “shrunken log2 fold change” value is -0.0683.

On to RRIRIRPPRLPRPRPRPALHPRP, for which the “shrunken log2 fold change” value is -0.268.

Take RRIRGRPPRLPRPRPRPKEHPRP: the “shrunken log2 fold change” value worked out at 0.627.

RRIRKRPPRLPRPRPRPCVSPRP: the “shrunken log2 fold change” value was -0.376.

RRIRHRPPRLPRPRPRPIDWPRP: the “shrunken log2 fold change” value is 0.0599.

For RRIRRRPPRLPRPRPRPDWCPRP, the “shrunken log2 fold change” value is 0.201.

On to RRIRIRPPRLPRPRPRPHCGPRP, for which the “shrunken log2 fold change” value is -0.0759.

RRIRSRPPRLPRPRPRPSVMPRP: the “shrunken log2 fold change” value was -0.391.

Consider RRIRGRPPRLPRPRPRPGLIPRP, for which the “shrunken log2 fold change” value is -0.0196.

With RRIRGRPPRLPRPRPRPAEMPRP, the “shrunken log2 fold change” value was determined as 0.621.

Regarding RRIRVRPPRLPRPRPRPDCYPRP, the “shrunken log2 fold change” value is -0.15.

Regarding RRIRSRPPRLPRPRPRPFINPRP, the “shrunken log2 fold change” value is -0.639.

Turning to RRIRWRPPRLPRPRPRPAGLPRP, the “shrunken log2 fold change” value was 0.289.

For RRIRGRPPRLPRPRPRPPPSPRP, the “shrunken log2 fold change” value was 1.22.

With RRIRFRPPRLPRPRPRPCMMPRP, the “shrunken log2 fold change” value was -0.0025.

For the sequence RRIRQRPPRLPRPRPRPVCSPRP, the “shrunken log2 fold change” value is -0.21.

For the sequence RRIRTRPPRLPRPRPRPFCIPRP, the “shrunken log2 fold change” value was -0.361.

For the sequence RRIRERPPRLPRPRPRPQEYPRP, the “shrunken log2 fold change” value is -0.01.
